One block for each molecule: values may come before it.
Legend:
[1] = molecular target: PD-1 on labeled cells (intercellular conjugate assay) (UniProt Q15116); assay: intercellular conjugate assay; two cell populations labeled with CFSE or Violet Cell Trace, 2 x 10^5 of each mixed in FACS buffer, 45 minutes at 37 degrees Celsius; co-localization read by FACS
[2] = molecular target: T1, Recombinant human NRP1 (R&D) (human, UniProt O14786 22-856); assay: BLI; BLItz system (ForteBio); human IgG fusion protein (25 ug/mL, 2 min) captured on anti-human IgG Fc capture sensors; protein analytes in 1x Kinetic Buffer (ForteBio); settings: both partners purified
T1 construct: Neuropilin-1 (NRP1), human; Soluble analyte in BLI; no catalogue number or tag is printed; also called Rh-NRP1; source: bought: R&D systems
T1 sequence (looked up): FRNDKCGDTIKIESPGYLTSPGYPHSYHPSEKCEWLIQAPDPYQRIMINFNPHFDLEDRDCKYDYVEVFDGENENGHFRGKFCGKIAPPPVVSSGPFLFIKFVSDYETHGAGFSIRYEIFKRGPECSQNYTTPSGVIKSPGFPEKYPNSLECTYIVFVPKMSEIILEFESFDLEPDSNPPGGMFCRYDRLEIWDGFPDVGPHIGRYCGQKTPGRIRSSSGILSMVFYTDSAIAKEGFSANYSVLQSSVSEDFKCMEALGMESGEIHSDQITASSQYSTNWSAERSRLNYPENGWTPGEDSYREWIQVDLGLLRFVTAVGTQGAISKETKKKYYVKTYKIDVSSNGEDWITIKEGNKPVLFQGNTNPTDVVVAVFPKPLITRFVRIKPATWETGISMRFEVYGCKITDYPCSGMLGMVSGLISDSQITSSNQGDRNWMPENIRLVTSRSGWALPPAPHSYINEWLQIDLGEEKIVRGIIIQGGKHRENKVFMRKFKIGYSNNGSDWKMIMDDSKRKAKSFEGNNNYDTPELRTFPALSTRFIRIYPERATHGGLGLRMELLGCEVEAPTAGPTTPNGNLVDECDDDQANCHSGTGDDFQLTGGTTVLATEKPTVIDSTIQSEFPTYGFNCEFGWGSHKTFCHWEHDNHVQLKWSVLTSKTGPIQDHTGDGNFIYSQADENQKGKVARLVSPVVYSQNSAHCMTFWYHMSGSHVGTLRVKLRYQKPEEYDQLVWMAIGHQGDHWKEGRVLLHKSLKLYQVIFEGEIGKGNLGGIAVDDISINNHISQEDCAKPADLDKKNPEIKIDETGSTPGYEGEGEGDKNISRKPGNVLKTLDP

Sequence of PD-1 on labeled cells (intercellular conjugate assay) (Q15116 25-288): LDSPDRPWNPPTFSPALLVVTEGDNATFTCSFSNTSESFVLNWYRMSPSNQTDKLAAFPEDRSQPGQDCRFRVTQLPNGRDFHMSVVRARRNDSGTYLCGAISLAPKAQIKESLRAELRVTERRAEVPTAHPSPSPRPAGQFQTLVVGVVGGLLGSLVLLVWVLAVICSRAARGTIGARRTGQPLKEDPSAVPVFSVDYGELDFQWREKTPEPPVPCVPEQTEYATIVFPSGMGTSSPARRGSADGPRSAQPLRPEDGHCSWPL

- percent co-localization [1]: 18%
Molecule: PD-L1 on labeled cells (intercellular conjugate assay) (from UniProt Q9NZQ7 19-290) (ligand)

- percent co-localization [1]: 24%
Molecule: PD-L2 on labeled cells (intercellular conjugate assay) (from UniProt Q9BQ51 20-273) (ligand)

- binding result [2]: binds
B1: Human Sema3a-hIgG1 (R&D) (Fc fusion, UniProt Q14563 21-771, looked up)
chain: NYQNGKNNVPRLKLSYKEMLESNNVITFNGLANSSSYHTFLLDEERSRLYVGAKDHIFSFDLVNIKDFQKIVWPVSYTRRDECKWAGKDILKECANFIKVLKAYNQTHLYACGTGAFHPICTYIEIGHHPEDNIFKLENSHFENGRGKSPYDPKLLTASLLIDGELYSGTAADFMGRDFAIFRTLGHHHPIRTEQHDSRWLNDPKFISAHLISESDNPEDDKVYFFFRENAIDGEHSGKATHARIGQICKNDFGGHRSLVNKWTTFLKARLICSVPGPNGIDTHFDELQDVFLMNFKDPKNPVVYGVFTTSSNIFKGSAVCMYSMSDVRRVFLGPYAHRDGPNYQWVPYQGRVPYPRPGTCPSKTFGGFDSTKDLPDDVITFARSHPAMYNPVFPMNNRPIVIKTDVNYQFTQIVVDRVDAEDGQYDVMFIGTDVGTVLKVVSIPKETWYDLEEVLLEEMTVFREPTAISAMELSTKQQQLYIGSTAGVAQLPLHRCDIYGKACAECCLARDPYCAWDGSACSRYFPTAKRRTRRQDIRNGDPLTHCSDLHHDNHHGHSPEERIIYGVENSSTFLECSPKSQRALVYWQFQRRNEERKEEIRVDDHIIRTDQGLLLRSLQQKDSGNYLCHAVEHGFIQTLLKVTLEVIDTEHLEELLHKDDDGDGSKTKEMSNSMTPSQKVWYRDFMQLINHPNLNTMDEFCEQVWKRDRKQRRQRPGHTPGNSNKWKHLQENKKGRNRRTHEFERAPRSV
notes: Semaphorin 3a (Sema3a), human; Commercial Fc fusion; no catalogue number; also called Sema3a-Ig; Semaphorin3a-hIgG1; source: bought: R&D systems
